Experimental data published in patent US20140087995A1 (published 2014).
Numbered stars: 1 amine (or outer) side, 2 acyl side, 3 side chain; on linkers, the order of the positions; unused ones are H or OH. Bridge positions count the residues as written; N and C are the ends. Side chains are listed from the residue outwards. Ends that are not written are not given here. * marks the point of attachment. C20 diacid = O=C(O)CCCCCCCCCCCCCCCCCCC(=O)*; γGlu = O=C(O)[C@H](CCC(=O)[*:2])N[*:1]; AEEA = NCCOCCOCC(=O)O

Assays:
[1] = biological target: T1, human calcitonin receptor (human, UniProt P30988 25-474); experiment: ratio of binding IC50s: human calcitonin receptor / human amylin receptor (reference)
T1 construct: whole, on cells; Membranes prepared from a stably transfected BHK cell line (Assay VII); also called hCTR; hCT
T1 sequence (looked up): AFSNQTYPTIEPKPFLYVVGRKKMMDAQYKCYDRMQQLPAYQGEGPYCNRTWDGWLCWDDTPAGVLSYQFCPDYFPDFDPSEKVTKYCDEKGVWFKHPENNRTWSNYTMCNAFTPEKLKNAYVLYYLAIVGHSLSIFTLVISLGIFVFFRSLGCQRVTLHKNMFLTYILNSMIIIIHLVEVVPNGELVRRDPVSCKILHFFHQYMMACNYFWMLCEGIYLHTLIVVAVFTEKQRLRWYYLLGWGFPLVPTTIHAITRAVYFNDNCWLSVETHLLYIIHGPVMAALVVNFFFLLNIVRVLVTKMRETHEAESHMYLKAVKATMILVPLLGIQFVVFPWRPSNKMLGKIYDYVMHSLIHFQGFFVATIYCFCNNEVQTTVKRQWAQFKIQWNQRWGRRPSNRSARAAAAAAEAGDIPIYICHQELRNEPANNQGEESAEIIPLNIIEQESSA
How it was run: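 Membranes (35 ng/μL final) + SPA beads, 50 mM Hepes pH 7.4 buffer with 1 mM CaCl2, 5 mM MgCl₂, 0.1% OA, 0.02% Tween20; 120 min, 25° C, shaking; centrifuged, counted; IC₅₀ by one-site binding competition.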

rat calcitonin receptor [2] = biological target: T2, rat calcitonin receptor (rat, UniProt P32214 25-516); experiment: ratio of binding IC50s: rat calcitonin receptor / rat amylin receptor (reference)
T2 construct: whole, on cells; Membranes prepared from transiently transfected BHK tk'ts 13 cells (Assay VIII); also called rCTR; rCT
T2 sequence (looked up): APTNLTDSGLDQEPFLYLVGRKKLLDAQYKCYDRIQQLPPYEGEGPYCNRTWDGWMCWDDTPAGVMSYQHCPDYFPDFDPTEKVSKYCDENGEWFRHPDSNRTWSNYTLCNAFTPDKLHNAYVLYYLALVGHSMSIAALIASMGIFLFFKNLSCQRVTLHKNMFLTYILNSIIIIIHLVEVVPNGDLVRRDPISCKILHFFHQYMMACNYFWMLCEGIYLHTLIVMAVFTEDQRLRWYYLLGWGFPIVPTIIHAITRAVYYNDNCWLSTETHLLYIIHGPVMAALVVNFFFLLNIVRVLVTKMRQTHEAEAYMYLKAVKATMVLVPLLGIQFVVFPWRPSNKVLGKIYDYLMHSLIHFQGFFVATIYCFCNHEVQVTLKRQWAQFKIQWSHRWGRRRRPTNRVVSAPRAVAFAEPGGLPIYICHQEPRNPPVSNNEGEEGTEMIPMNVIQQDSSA

rat calcitonin receptor [3] = biological target: T2, rat calcitonin receptor; experiment: SPA competition vs 125I-calcitonin, membranes of BHK cells with rat calcitonin receptor (Assay VIII)
[4] = biological target: T3, rat amylin receptor (rat calcitonin receptor + rat RAMP 3) (rat, UniProt P32214 25-516; Q9JJ73 23-147); experiment: SPA competition vs 125I-rat amylin, membranes of BHK cells with rat calcitonin receptor + rat RAMP3 (Assay VI)
T3 construct: whole, on cells; Membranes prepared from transiently transfected BHK tk'ts 13 cells (Assay VI); also called rAmylin-R; rAmylin
T3 sequence (looked up) 1: T2 sequence (looked up)
T3 sequence (looked up) 2: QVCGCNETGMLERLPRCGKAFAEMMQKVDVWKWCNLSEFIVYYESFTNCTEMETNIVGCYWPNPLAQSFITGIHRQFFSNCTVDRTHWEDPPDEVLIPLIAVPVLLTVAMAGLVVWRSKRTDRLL

B1: N^ε1-[2-[2-[2-[[(4S)-4-carboxy-4-(19-carboxynonadecanoylamino)butanoyl]amino]ethoxy]ethoxy]acetyl]-[Ser14,Arg17,Pro21,Pro27,Pro31]-h-amylin (peptide)
peptide: K([AEEA-γGlu-C20 diacid])CNTATCATQRLASFLRHSSPNFGAIPSSTPVGSNTY-NH2
modifications: disulfide 2-7; N-terminus assumed
SMILES: CC[C@H](C)[C@H](NC(=O)[C@H](C)NC(=O)CNC(=O)[C@H](Cc1ccccc1)NC(=O)[C@H](CC(N)=O)NC(=O)[C@@H]1CCCN1C(=O)[C@H](CO)NC(=O)[C@H](CO)NC(=O)[C@H](Cc1c[nH]cn1)NC(=O)[C@H](CCCNC(=N)N)NC(=O)[C@H](CC(C)C)NC(=O)[C@H](Cc1ccccc1)NC(=O)[C@H](CO)NC(=O)[C@H](C)NC(=O)[C@H](CC(C)C)NC(=O)[C@H](CCCNC(=N)N)NC(=O)[C@H](CCC(N)=O)NC(=O)[C@@H](NC(=O)[C@H](C)NC(=O)[C@@H]1CSSC[C@H](NC(=O)[C@@H](N)CCCCNC(=O)COCCOCCNC(=O)CC[C@H](NC(=O)CCCCCCCCCCCCCCCCCCC(=O)O)C(=O)O)C(=O)N[C@@H](CC(N)=O)C(=O)N[C@@H]([C@@H](C)O)C(=O)N[C@@H](C)C(=O)N[C@@H]([C@@H](C)O)C(=O)N1)[C@@H](C)O)C(=O)N1CCC[C@H]1C(=O)N[C@@H](CO)C(=O)N[C@@H](CO)C(=O)N[C@H](C(=O)N1CCC[C@H]1C(=O)N[C@H](C(=O)NCC(=O)N[C@@H](CO)C(=O)N[C@@H](CC(N)=O)C(=O)N[C@H](C(=O)N[C@@H](Cc1ccc(O)cc1)C(N)=O)[C@@H](C)O)C(C)C)[C@@H](C)O
notes: Analogue of human amylin; also called compound 73
Ratio hCT/hAmylin binding [1]: 51.7
Ratio rCT/rAmylin binding (rat calcitonin receptor [2]): 178
IC50 (rat calcitonin receptor [3]): 50.3 nM
IC50 [4]: 0.283 nM

B2: N^ε1-[2-[2-[2-[[(4S)-4-carboxy-4-(19-carboxynonadecanoylamino)butanoyl]amino]ethoxy]ethoxy]acetyl]-[Thr14,Arg17,Pro21,Pro27,Pro31]-h-amylin (peptide)
peptide: K([AEEA-γGlu-C20 diacid])CNTATCATQRLATFLRHSSPNFGAIPSSTPVGSNTY-NH2
modifications: disulfide 2-7; N-terminus assumed
SMILES: CC[C@H](C)[C@H](NC(=O)[C@H](C)NC(=O)CNC(=O)[C@H](Cc1ccccc1)NC(=O)[C@H](CC(N)=O)NC(=O)[C@@H]1CCCN1C(=O)[C@H](CO)NC(=O)[C@H](CO)NC(=O)[C@H](Cc1c[nH]cn1)NC(=O)[C@H](CCCNC(=N)N)NC(=O)[C@H](CC(C)C)NC(=O)[C@H](Cc1ccccc1)NC(=O)[C@@H](NC(=O)[C@H](C)NC(=O)[C@H](CC(C)C)NC(=O)[C@H](CCCNC(=N)N)NC(=O)[C@H](CCC(N)=O)NC(=O)[C@@H](NC(=O)[C@H](C)NC(=O)[C@@H]1CSSC[C@H](NC(=O)[C@@H](N)CCCCNC(=O)COCCOCCNC(=O)CC[C@H](NC(=O)CCCCCCCCCCCCCCCCCCC(=O)O)C(=O)O)C(=O)N[C@@H](CC(N)=O)C(=O)N[C@@H]([C@@H](C)O)C(=O)N[C@@H](C)C(=O)N[C@@H]([C@@H](C)O)C(=O)N1)[C@@H](C)O)[C@@H](C)O)C(=O)N1CCC[C@H]1C(=O)N[C@@H](CO)C(=O)N[C@@H](CO)C(=O)N[C@H](C(=O)N1CCC[C@H]1C(=O)N[C@H](C(=O)NCC(=O)N[C@@H](CO)C(=O)N[C@@H](CC(N)=O)C(=O)N[C@H](C(=O)N[C@@H](Cc1ccc(O)cc1)C(N)=O)[C@@H](C)O)C(C)C)[C@@H](C)O
notes: Analogue of human amylin; also called compound 75
Ratio hCT/hAmylin binding [1]: 91.4
Ratio rCT/rAmylin binding (rat calcitonin receptor [2]): 110
IC50 (rat calcitonin receptor [3]): 442 nM
IC50 [4]: 4.03 nM
